Measurements taken from US20260265390A1 (SHANDONG SIMCERE BIOPHARMACEUTICAL, published 2026).
Substitutions are numbered along the chain they refer to.

T1: human BCMA (B cell maturation antigen), expressed on cells (human, UniProt Q02223 1-184)
T1 construct: whole, on cells; Overexpressed on Flp-in CHO cells; also called Flp-inCHO-human BCMA cells; CD269
T1 sequence (looked up): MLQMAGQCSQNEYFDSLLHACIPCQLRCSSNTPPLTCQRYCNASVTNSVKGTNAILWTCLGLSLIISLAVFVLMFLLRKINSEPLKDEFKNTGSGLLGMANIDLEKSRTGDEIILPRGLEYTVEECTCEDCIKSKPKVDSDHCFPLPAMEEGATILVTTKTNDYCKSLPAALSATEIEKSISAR

B1: Tri-62 anti-BCMA-GPRC5D-CD3 trispecific antibody (other)
VH 1: EGQMVQSGAEVKKPGSSVKVSCKASGYMFTDHTFHWVRQAPGQGLEWMGYIYPRDQNTKYNEKFKGRVTITADKSTSTAYMELSSLRSEDTAVYYCARAGYYGSSHAMDYWGQGTTVTVSS
VL 1: DIQMTQSPSSLSASVGDRVTITCKASQDVSTAVAWYQQKPGKSPRLLIYSASSRYTGVPSRFSGSGSGTDFTFTISSLQPEDIATYYCQQLYSTPWTFGGGTKVEIK
VH 2: EVQLVQSGAEVKKPGSSVKVSCKASGYTFTSYGISWVRQAPGQGLEWMGEIYPRSGNTYYNEKFKGRVTLTADKSTSTAYMELSSLRSEDTAVYYCARGRAYGRNYPMDYWGQGTTVTVSS
VL 2: EIVLTQSPATLSLSPGERATLSCRASQSIGTSIHWYQQKPGQSPRLLIKYASESISGIPARFSGSGSGTDFTLTISSLEPEDFAVYYCQQSNSWPYTFGGGTKVEIK
VH 3: EVQLVESGGGVVQPGRSLRLSCAASGFTFTDYYMSWVRQAPGKGLEWVAMSRNKAKGHTIEYSSSVKGRFTISRDNSKNTLYLQMNSLRAEDTAVYYCARDTYESYDGYFDVWGQGTTVTVSS
VL 3: DIVMTQSPDSLAVSLGERATINCKSSQSLFNSRSRKNYLAWYQQKPGQTPKLLIYWASIRESGVPDRFSGSGSGTDFTLTISSLQAEDVAVYYCKQSYYLYTFGQGTKLEIK
chain 1: ESKYGPPCPPCPAPEAAGGPSVFLFPPKPKDTLMISRTPEVTCVVVDVSQEDPEVQFNWYVDGVEVHNAKTKPREEQFNSTYRVVSVLTVLHQDWLNGKEYKCKVSNKGLPSSIEKTISKAKGQPREPQVYTLPPSQEEMTKNQVSLWCLVKGFYPSDIAVEWESNGQPENNYKTTPPVLDSDGSFFLYSRLTVDKSRWQEGNVFSCSVMHEALHNHYTQKSLSLSLG
chain 2: B1 chain 1 with W148S, L150A, Y189V
notes: Trispecific antibody; Asymmetric (purification method B)
B2: Tri-65 anti-BCMA-GPRC5D-CD3 trispecific antibody (other)
VHH: EVQLVESGGGLVQPGGSLRLSCAASESISSIHIMAWYRQAPGKQRELVAGIRNDGSTVYVDSVKGRFTISRDNAKNSLYLQMNSLRAEDTAVYYCNADQGFGSYSEWERRSRWGQGTTVTVSS
VH 1: EVQLVQSGAEVKKPGASVKVSCKTSGYIFTNFGITWVRQAPGQRLEWMGENYPRRINTYYNEKFKGRVTITADKSASTAYMELSSLRSEDTAVYYCSRKDIFGLSYALDYWGQGTTVTVSS
VL 1: DIQMTQSPSSLSASVGDRVTITCKASQNVGTNVAWYQHKPGKSPKALIYSASYQYSGVPSRFSGSGSGTDFTLTISSLQPEDVATYICQQYKNYPYTFGGGTKVEIK
VH 2: B1 VH 3
VL 2: B1 VL 3
chain 1: B1 chain 1
chain 2: B1 chain 1 with W148S, L150A, Y189V
notes: Trispecific antibody; Asymmetric (purification method C)
B3: Tri-38 anti-BCMA-GPRC5D-CD3 trispecific antibody (other)
VHH: EVQLVESGGGLVQPGGSLRLSCSASGFTLDYYMIGWFRQAPGKEREGLSSISPADGSTYYADSVKGRFTISRDSSKNTVYLQMNSLRAEDTAVYYCAAGNEATISWGFGPWEYDYWGQGTMVTVSS
VH 1: B1 VH 2
VL 1: B1 VL 2
VH 2: B1 VH 3
VL 2: B1 VL 3
chain 1: EPKSSDKTHTCPPCPAPEAAGGPSVFLFPPKPKDTLMISRTPEVTCVVVDVSHEDPEVKFNWYVDGVEVHNAKTKPREEQYNSTYRVVSVLTVLHQDWLNGKEYKCKVSNKALPAPIEKTISKAKGQPREPQVYTLPPSREEMTKNQVSLWCLVKGFYPSDIAVEWESNGQPENNYKTTPPVLDSDGSFFLYSKLTVDKSRWQQGNVFSCSVMHEALHNHYTQKSLSLSPG
chain 2: B3 chain 1 with W151S, L153A, Y192V
notes: as for B1
B4: Tri-66 anti-BCMA-GPRC5D-CD3 trispecific antibody (other)
VHH: B2 VHH
VH 1: B2 VH 1
VL 1: B2 VL 1
VH 2: B1 VH 3
VL 2: B1 VL 3
chain 1: B1 chain 1
chain 2: B1 chain 1 with W148S, L150A, Y189V
notes: as for B2
B5: Tri-41 anti-BCMA-GPRC5D-CD3 trispecific antibody (other)
VHH: B3 VHH
VH 1: B1 VH 2
VL 1: B1 VL 2
VH 2: B1 VH 3
VL 2: B1 VL 3
chain 1: B3 chain 1
chain 2: B3 chain 1 with W151S, L153A, Y192V
notes: as for B1
B6: Tri-49 anti-BCMA-GPRC5D-CD3 trispecific antibody (other)
VHH: B2 VHH
VH 1: B1 VH 2
VL 1: B1 VL 2
VH 2: B1 VH 3
VL 2: B1 VL 3
chain 1: B1 chain 1
chain 2: B1 chain 1 with W148S, L150A, Y189V
notes: as for B1

Columns and labels:
[1] = molecular target: T1, human BCMA (B cell maturation antigen), …; experiment: FACS, Flp-inCHO-human BCMA cells
Procedure: (§1) Flp-inCHO-human BCMA cells and CHOK1-human GPRC5D cells were scale-up cultured in T-75 cell culture flask to the logarithmic growth phase, respectively, and the cells were pipetted to obtain a single cell suspension. After the cells were counted and centrifuged, the cell precipitate was resuspended to 2×10⁶ cells per milliliter with a FACS buffer (PBS+2% fetal bovine serum). The suspension was added to a 96-well FACS reaction plate at 50 μl/well. 8 concentrations of the anti-BCMA-GPRC5D-CD3 antibodies or control antibodies were added at 50 μl/well, wherein gradient dilution was performed at a dilution ratio of 5 from a concentration of 100 nM. The cells were incubated at 4° C. for 1 h. The obtained mixture was centrifuged and washed 3 times with a PBS buffer. […] The obtained mixture was centrifuged and washed 3 times with a PBS buffer. 100 μl of the mixture was taken for detection and result analysis by FACS (FACS Canto™, purchased from BD Company). Data analysis was performed by software (FlowJo) to obtain the mean fluorescence intensity (MFI) of the cells. Then, a software (GraphPad Prism8) was used for analysis, data fitting and EC50 calculation.

[2] = molecular target: T2, monkey CD3, on activated monkey PBMC (monkey); experiment: FACS, activated monkey PBMC
T2 construct: whole, on cells

[3] = molecular target: T3, human GPRC5D, expressed on cells (human, UniProt Q9NZD1 1-345); experiment: FACS, CHOK1-human GPRC5D cells
T3 construct: whole, on cells; Overexpressed on CHOK1 cells; also called CHOK1-human GPRC5D cells
Procedure: as §1

[4] = molecular target: T4, human CD3, endogenous on Jurkat cells and on activated human PBMC (human, UniProt P07766 23-207; P04234 22-171); experiment: FACS, Jurkat cells
T4 construct: whole, on cells; CD3 complex as it stands on T cells

[5] = molecular target: T4, human CD3, endogenous on Jurkat cells …; experiment: FACS, activated human PBMC

T2 sequence (Q95LI5 22-198): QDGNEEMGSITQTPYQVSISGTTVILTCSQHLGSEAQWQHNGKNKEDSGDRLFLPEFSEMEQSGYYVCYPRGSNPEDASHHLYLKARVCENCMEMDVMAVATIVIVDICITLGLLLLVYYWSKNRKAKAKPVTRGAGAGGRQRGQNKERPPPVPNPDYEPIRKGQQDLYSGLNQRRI
T3 sequence (Q9NZD1 whole entry): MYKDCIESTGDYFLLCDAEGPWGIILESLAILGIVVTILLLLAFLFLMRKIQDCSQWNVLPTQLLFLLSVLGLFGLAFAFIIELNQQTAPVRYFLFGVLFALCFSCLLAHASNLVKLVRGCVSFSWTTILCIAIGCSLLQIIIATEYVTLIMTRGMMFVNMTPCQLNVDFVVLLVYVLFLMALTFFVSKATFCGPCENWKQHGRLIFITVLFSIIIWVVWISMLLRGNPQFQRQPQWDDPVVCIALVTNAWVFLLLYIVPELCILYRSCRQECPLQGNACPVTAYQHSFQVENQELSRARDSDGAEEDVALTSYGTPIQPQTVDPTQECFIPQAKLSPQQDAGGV
T4 sequence (P07766 23-207, chain 1 of 2): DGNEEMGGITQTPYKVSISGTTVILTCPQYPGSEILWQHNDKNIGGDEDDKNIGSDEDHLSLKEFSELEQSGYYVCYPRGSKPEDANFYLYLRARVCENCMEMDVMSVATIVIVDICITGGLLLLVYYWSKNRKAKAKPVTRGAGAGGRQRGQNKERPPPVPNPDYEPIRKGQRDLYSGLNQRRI
T4 sequence (P04234 22-171, chain 2 of 2): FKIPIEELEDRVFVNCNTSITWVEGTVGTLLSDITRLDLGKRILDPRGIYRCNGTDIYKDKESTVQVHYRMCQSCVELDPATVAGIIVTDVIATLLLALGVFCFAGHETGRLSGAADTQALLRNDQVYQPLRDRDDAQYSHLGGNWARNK

Binder	EC50 [1] [nM]	EC50 [2] [nM]	Maximum mean fluorescence intensity [2]	EC50 [3] [nM]	Maximum mean fluorescence intensity [4]	Maximum mean fluorescence intensity [5]	EC50 [4] [nM]	EC50 [5] [nM]
B1	14.5	85.5	740	0.4	462	452		
B2	2.54			1.66				
B3	4.43			2.06				
B4	1.09			1.53				
B5	1.52			4.3				
B6		59.4					157	31.8
